Test results taken from PMC3391258 (PLoS ONE, 2012).

Biological target: T1, TolC with a hexahistidine-tag at the C-terminus (E. coli, UniProt P02930 23-493)
T1 construct: also called TolC-His; hexa-His-tagged wild-type TolC; not shown: His6, C-terminal, kept
T1 sequence (looked up): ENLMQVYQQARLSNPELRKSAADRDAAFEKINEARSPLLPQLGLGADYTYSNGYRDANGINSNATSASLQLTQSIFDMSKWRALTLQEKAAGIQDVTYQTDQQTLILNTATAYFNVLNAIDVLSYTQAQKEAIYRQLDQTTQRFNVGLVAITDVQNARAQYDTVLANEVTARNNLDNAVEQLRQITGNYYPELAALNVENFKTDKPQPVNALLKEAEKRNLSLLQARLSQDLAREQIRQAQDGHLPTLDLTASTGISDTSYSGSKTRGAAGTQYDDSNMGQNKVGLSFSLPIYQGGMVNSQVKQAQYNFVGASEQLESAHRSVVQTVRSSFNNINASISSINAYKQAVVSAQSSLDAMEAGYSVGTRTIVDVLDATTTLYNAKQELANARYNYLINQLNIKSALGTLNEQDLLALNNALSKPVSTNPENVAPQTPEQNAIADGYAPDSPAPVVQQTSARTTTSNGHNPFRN
Assay: cross-linking
Settings: partners not purified

B1: HlyD-R186A tagged with c-Myc at the C-terminus (natural protein)
chain: MKTWLMGFSEFLLRYKLVWSETWKIRKQLDTPVREKDENEFLPAHLELIETPVSRRPRLVAYFIMGFLVIAFILSVLGQVEIVATANGKLTLSGRSKEIKPIENSIVKEIIVKEGESVRKGDVLLKLTALGAEADTLKTQSSLLQARLEQIRYQILSRSIELNKLPELKLPDEPYFQNVSEEEVLALTSLIKEQFSTWQNQKYQKELNLDKKRAERLTILARINRYENVSRVEKSRLDDFRSLLHKQAIAKHAVLEQENKYVEAANELRVYKSQLEQIESEILSAKEEYQLVTQLFKNEILDKLRQTTDSIELLTLELEKNEERQQASVIRAPVSGKVQQLKVHTEGGVVTTAETLMVIVPEDDTLEVTALVQNKDIGFINVGQNAIIKVEAFPYTRYGYLVGKVKNINLDAIEDQKLGLVFNVIVSVEENDLSTGNKHIPLSSGMAVTAEIKTGMRSVISYLLSPLEESVTESLHER
notes: also called HlyD-R186A-C-myc
crosslinking to TolC, percent of that of wild-type HlyD: 10 % of wild-type HlyD

B2: HlyD-T197A tagged with c-Myc at the C-terminus (natural protein)
chain: MKTWLMGFSEFLLRYKLVWSETWKIRKQLDTPVREKDENEFLPAHLELIETPVSRRPRLVAYFIMGFLVIAFILSVLGQVEIVATANGKLTLSGRSKEIKPIENSIVKEIIVKEGESVRKGDVLLKLTALGAEADTLKTQSSLLQARLEQIRYQILSRSIELNKLPELKLPDEPYFQNVSEEEVLRLTSLIKEQFSAWQNQKYQKELNLDKKRAERLTILARINRYENVSRVEKSRLDDFRSLLHKQAIAKHAVLEQENKYVEAANELRVYKSQLEQIESEILSAKEEYQLVTQLFKNEILDKLRQTTDSIELLTLELEKNEERQQASVIRAPVSGKVQQLKVHTEGGVVTTAETLMVIVPEDDTLEVTALVQNKDIGFINVGQNAIIKVEAFPYTRYGYLVGKVKNINLDAIEDQKLGLVFNVIVSVEENDLSTGNKHIPLSSGMAVTAEIKTGMRSVISYLLSPLEESVTESLHER
notes: also called HlyD-T197A-C-myc
crosslinking to TolC, percent of that of wild-type HlyD: 48 % of wild-type HlyD
